Assay [1] concerns human epidermal growth factor receptor (EGFR). In words: Biacore SPR binding kinetics of anti-EGFR scFv-Fc clones with or without 10 µM MTX. As to conditions: 37° C.; for koff, kinetics toward antigen with 0 µM MTX / kon, kinetics toward antigen with 0 µM MTX / koff, kinetics toward antigen with 10 µM MTX / kon, kinetics toward antigen with 10 µM MTX: pH 7.4, scFv-Fc. As to the method: All binding kinetics analysis was performed on label-free Biacore surface plasmon biosensors (Biacore T200™ from GE Life Sciences) at 37° C. in 10 mM Hepes pH 7.4, 150 mM NaCl, 0.05% Tween-20 (HBST+), with or without 10 µM MTX. The Biacore data were processed in Biacore T200 Evaluation Software, and the data were double-referenced (Myszka, 1999, J Mol Recognit 12(5):279-284) and fit globally to a simple Langmuir with mass transport model to determine the equilibrium dissociation constant, KD, from the ratio of the kinetic rate constants (KD = koff/kon). In some cases the binding of antigen was very low (or not detectable) in the presence of 10 µM MTX and as a result kinetic rate constants could not be accurately determined. In these cases, a KD (or KD limit) was estimated based on the binding response at the highest analyte concentration tested or based on the typical limit of detection for a Biacore T200. […]

The test system of a further assay is human CD33. In words: Biacore SPR binding kinetics of anti-CD33 scFv-Fc clones with or without 10 µM MTX. Particulars: CD33, 37° C., pH 7.4; for Kd: koff/kon, or estimated from binding response / limit of detection for weak interactions, read-out: KD, kinetics toward antigen with 10 µM MTX. The text has this:
The first 4 rounds of panning used biotinylated CD33 antigen captured on streptavidin or neutravidin coated 96-well plates. […] 1536 clones were randomly chosen from the 4th and 5th round of panning against the CD33 antigen and their binding specificity determined by phage ELISA. Clones that specifically bound to CD33 were sequenced and all unique clones were subjected to a phage competition ELISA to assess their relative affinities to CD33 and sensitivity to MTX by measuring their binding strengths in the presence or absence of 10 µM (micromolar) MTX (i.e. in 0 or 10 µM MTX).
All binding kinetics analysis was performed on label-free Biacore surface plasmon biosensors (Biacore T200™ from GE Life Sciences) at 37° C. in 10 mM Hepes pH 7.4, 150 mM NaCl, 0.05% Tween-20 (HBST+), with or without 10 µM MTX. The Biacore data were processed in Biacore T200 Evaluation Software, and the data were double-referenced (Myszka, 1999, J Mol Recognit 12(5):279-284) and fit globally to a simple Langmuir with mass transport model to determine the equilibrium dissociation constant, KD, from the ratio of the kinetic rate constants (KD = koff/kon). In some cases the binding of antigen was very low (or not detectable) in the presence of 10 µM MTX and as a result kinetic rate constants could not be accurately determined. In these cases, a KD (or KD limit) was estimated based on the binding response at the highest analyte concentration tested or based on the typical limit of detection for a Biacore T200.

B1: P01_B06: anti-EGFR reference clone, less than 2-fold MTX effect; VH SEQ ID NO: 129, VL SEQ ID NO: 130 (antibody, V domains shown)
VH: QVQLVESGGGLVQAGGSLRLSCAASRRSSRSWAMHWVRQAPGKGLEWVAVISYDGRLKYYADSVKGRFTISRDNAEYLVYLQMNSLRAEDTAVYYCAADTSMFASYDPMDVWGQGTLVTVSS
VL: QSVLTQPPSASGTPGQRVTISCSGSSSNIGRNYVNWYQQLPGTAPKLLIYRDDHRPSGVPDRFSGSKSGTSASLAISGLRSEDEADYYCASWDDTLSGWVFGTGTKLTVL
modifications: Synthetic Antibody
For the molecule B1, in assay [1], the “koff, kinetics toward antigen with 0 µM MTX” value (“koff … with 0 µM MTX” below) was 0.024 s⁻¹ and the “kon, kinetics toward antigen with 0 µM MTX” value (from here on “kon … with 0 µM MTX”) stood at 100000 M⁻¹ s⁻¹. In addition, in assay [1] (10 µM MTX), the “koff, kinetics toward antigen with 10 µM MTX” value (from here on “koff … with 10 µM MTX”) was 0.026 s⁻¹ and the “kon, kinetics toward antigen with 10 µM MTX” value (“kon … with 10 µM MTX” below) was determined as 100000 M⁻¹ s⁻¹.

B2: P05_A11: anti-EGFR clone with conditional affinity; VH SEQ ID NO: 133, VL SEQ ID NO: 134; also as scFv in CAR (antibody, V domains shown)
VH: QVQLVESGGGLVQAGGSLRLSCAASRRSSRSWAMHWVRQAPGKGLEWVAVISYDGRLKYYADSVKGRFTISRDNAEYLVYLQMNSLRAEDTAVYYCAASDDADIFDDYSYGAMDYWGQGTLVTVSS
VL: QSVLTQPPSASGTPGQRVTISCSGSSSNIGRNYVYWYQQLPGTAPKLLIYMTSQRPSGVPDRFSGSKSGTSASLAISGLRSEDEADYYCASWDDNLRAWVFGTGTKLTVL
modifications: Synthetic Antibody
notes: also as scFv in CAR
Consider B2, for which, in assay [1], the “koff … with 0 µM MTX” value stood at 0.028 s⁻¹ and the “kon … with 0 µM MTX” value turned out to be 120000 M⁻¹ s⁻¹. In assay [1] (10 µM MTX), the “koff … with 10 µM MTX” value came out at 0.05 s⁻¹ and the “kon … with 10 µM MTX” value was found to be 87000 M⁻¹ s⁻¹.

B3: P01_A09: anti-CD33 clone with conditional affinity; VH SEQ ID NO: 3, VL SEQ ID NO: 4; tested as scFv-Fc (antibody, V domains shown)
VH: QVQLVESGGGLVQAGGSLRLSCAASRRSSRSWAMHWVRQAPGKGLEWVAVISYDGRLKYYADSVKGRFTISRDNAEYLVYLQMNSLRAEDTAVYYCAAERPTSDGSTGGMDVWGQGTLVTVSS
VL: DIQMTQSPSSLSASVGDRVTITCRASQSISSYLNWYQQKPGKAPKLLIYGASTLQSGVPSRFSGSGSGTDFTLTISSLQPEDFATYYCQQSYSSGTFGQGTKVEIK
With B3, in the assay on human CD33 (scFv-Fc), the “koff … with 0 µM MTX” value turned out to be 0.017 s⁻¹ and the “kon … with 0 µM MTX” value turned out to be 110000 M⁻¹ s⁻¹.

B4: P02_H01: anti-CD33 clone with conditional affinity; VH SEQ ID NO: 17, VL SEQ ID NO: 18 (antibody, V domains shown)
VH: QVQLVESGGGLVQAGGSLRLSCAASRRSSRSWAMHWVRQAPGKGLEWVAVISYDGRLKYYADSVKGRFTISRDNAEYLVYLQMNSLRAEDTAVYYCAAGSGGGDGLDVWGQGTLVTVSS
VL: DIQMTQSPSSLSASVGDRVTITCRASQTISSYLNWYQQKPGKAPKLLIYSSSTLQGGVPSRFSGSGSGTDFTLTISSLQPEDFATYYCQQSYSSGTFGQGTKVEIK
modifications: Synthetic Antibody
For the molecule B4, in the assay with human CD33 (scFv-Fc), the “koff … with 0 µM MTX” value turned out to be 0.037 s⁻¹ and the “kon … with 0 µM MTX” value came to 28000 M⁻¹ s⁻¹.

B5: P02_A10: anti-CD33 clone with conditional affinity; VH SEQ ID NO: 9, VL SEQ ID NO: 10 (antibody, V domains shown)
VH: QVQLVESGGGLVQAGGSLRLSCAASRRSSRSWAMHWVRQAPGKGLEWVAVISYDGRLKYYADSVKGRFTISRDNAEYLVYLQMNSLRAEDTAVYYCAAESEWDTGGFDVWGQGTLVTVSS
VL: DIQMTQSPSSLSASVGDRVTITCRASQSIGSYLNWYQQKPGKAPKLLIYSSSNLQSGVPSRFSGSGSGTDFTLTISSLQPEDFATYYCQQSYTSGTFGQGTKVEIK
modifications: Synthetic Antibody
What is called Kd is the free concentration of one partner at which half of the binding sites on the other are occupied at equilibrium, for simple one-to-one binding. In the case of B5, in the assay on human CD33 (scFv-Fc), the “koff … with 0 µM MTX” value was determined as 0.044 s⁻¹ and the “kon … with 0 µM MTX” value was found to be 84000 M⁻¹ s⁻¹. For the same molecule, the Kd on human CD33 (10 µM MTX) was more than 9.02 µM.

B6: P02_E11: anti-CD33 clone with conditional affinity; VH SEQ ID NO: 15, VL SEQ ID NO: 16; also as scFv in CAR (antibody, V domains shown)
VH: QVQLVESGGGLVQAGGSLRLSCAASRRSSRSWAMHWVRQAPGKGLEWVAVISYDGRLKYYADSVKGRFTISRDNAEYLVYLQMNSLRAEDTAVYYCAAEASTDNGLDYWGQGTLVTVSS
VL: DIQMTQSPSSLSASVGDRVTITCRASQTISRHLNWYQQKPGKAPKLLIYSASSLASGVPSRFSGSGSGTDFTLTISSLQPEDFATYYCQQSHSAGTFGQGTKVEIK
modifications: Synthetic Antibody
notes: also as scFv in CAR
Turning to B6, in the assay on human CD33 (scFv-Fc), the “koff … with 0 µM MTX” value came to 0.0038 s⁻¹ and the “kon … with 0 µM MTX” value turned out to be 58000 M⁻¹ s⁻¹.

B7: P02_D08: anti-CD33 clone with conditional affinity; VH SEQ ID NO: 13, VL SEQ ID NO: 14 (antibody, V domains shown)
VH: QVQLVESGGGLVQAGGSLRLSCAASRRSSRSWAMHWVRQAPGKGLEWVAVISYDGRLKYYADSVKGRFTISRDNAEYLVYLQMNSLRAEDTAVYYCAAERGDGLDGNVGLDIWGQGTLVTVSS
VL: DIQMTQSPSSLSASVGDRVTITCRASQSISKYLNWYQQKPGKAPKLLIYGASTLQSGVPSRFSGSGSGTDFTLTISSLQPEDFATYYCQQSYSSGTFGQGTKVEIK
modifications: Synthtic Antibody; Synthetic Antibody
For the molecule B7, in the assay on human CD33 (scFv-Fc), the “koff … with 0 µM MTX” value stood at 0.0061 s⁻¹ and the “kon … with 0 µM MTX” value came out at 61000 M⁻¹ s⁻¹. In the assay on human CD33 (10 µM MTX, scFv-Fc), the “koff … with 10 µM MTX” value was determined as 0.062 s⁻¹ and the “kon … with 10 µM MTX” value was found to be 88000 M⁻¹ s⁻¹.

B8: P03_G12: anti-CD33 clone with conditional affinity; VH SEQ ID NO: 21, VL SEQ ID NO: 22 (antibody, V domains shown)
VH: QVQLVESGGGLVQAGGSLRLSCAASRRSSRSWAMHWVRQAPGKGLEWVAVISYDGRLKYYADSVKGRFTISRDNAEYLVYLQMNSLRAEDTAVYYCAADPTEGWSYLDYWGQGTLVTVSS
VL: DIQMTQSPSSLSASVGDRVTITCRASQGISSYLNWYQQKPGKAPKLLIYGASRLQSGVPSRFSGSGSGTDFTLTISSLQPEDFATYYCQQGYSSGTFGQGTKVEIK
modifications: Synthetic Antibody
On to B8, for which, in the assay on human CD33 (scFv-Fc), the “koff … with 0 µM MTX” value turned out to be 0.0094 s⁻¹ and the “kon … with 0 µM MTX” value stood at 71000 M⁻¹ s⁻¹. At human CD33 (10 µM MTX), the Kd was more than 10.9 µM.

B9: P07_H08: anti-EGFR clone with conditional affinity; VH SEQ ID NO: 121, VL SEQ ID NO: 122; also as scFv in CAR (antibody, V domains shown)
VH: QVQLVESGGGLVQAGGSLRLSCAASRRSSRSWAMHWVRQAPGKGLEWVAVISYDGRLKYYADSVKGRFTISRDNAEYLVYLQMNSLRAEDTAVYYCAAGFDWGWDSSDIYSAMDYWGQGTLVTVSS
VL: DIQMTQSPSSLSASVGDRVTITCRASQNIGRYLHWYQQKPGKAPKLLIYSASNLQSGVPSRFSGSGSGTDFTLTISSLQPEDFATYYCQQSYSSPFTFGQGTKVEIK
modifications: Synthetic Antibody
notes: also as scFv in CAR
B9: in assay [1], the “koff … with 0 µM MTX” value was 0.27 s⁻¹ and the “kon … with 0 µM MTX” value was determined as 330000 M⁻¹ s⁻¹. Also, the Kd in assay [1] (10 µM MTX, pH 7.4, koff/kon, or estimated from binding response / limit of detection for weak interactions, read-out: KD, kinetics toward antigen with 10 µM MTX) was more than 9.37 µM.

B10: P14_E03: anti-EGFR clone with conditional affinity; VH SEQ ID NO: 125, VL SEQ ID NO: 126 (antibody, V domains shown)
VH: QVQLVESGGGLVQAGGSLRLSCAASRRSSRSWAMHWVRQAPGKGLEWVAVISYDGRLKYYADSVKGRFTISRDNAEYLVYLQMNSLRAEDTAVYYCAAAPRVDWSDVSSGIDYWGQGTLVTVSS
VL: QSVLTQPPSASGTPGQRVTISCSGSISNIGTNNVYWYQQLPGTAPKLLIYRNNQRPSGVPDRFSGSKSGTSASLAISGLRSEDEADYYCSAWDDSLSGVVFGTGTKLTVL
modifications: Synthetic Antibody
Turning to B10, in assay [1], the “koff … with 0 µM MTX” value was determined as 0.00067 s⁻¹ and the “kon … with 0 µM MTX” value came to 110000 M⁻¹ s⁻¹. In assay [1] (10 µM MTX), the “koff … with 10 µM MTX” value was determined as 0.00072 s⁻¹ and the “kon … with 10 µM MTX” value came out at 29000 M⁻¹ s⁻¹.

(Values after patent US20230192839A1, “ANTIBODIES HAVING CONDITIONAL AFFINITY AND METHODS OF USE THEREOF” (PFIZER INC., priority 2017, published 2023).)
